The results in this text go back to paper PMC4742562, “Structure and Interactions of a Dimeric Variant of sHIP, a Novel Virulence Determinant of Streptococcus pyogenes” (Frontiers in Microbiology, 2016).

The target in data set [1] is T1, HRGsingle peptide (single heparin-binding motif of histidine-rich glycoprotein) (human).
T1 construct: also called GHHPHG; source: synthetic peptide (Biosyntan GmbH, Berlin)
The data set can be described thus: ITC; 0.5 mM HRGsingle peptide titrated into 0.05 mM sHIPwt or sHIPqp, 20 mM MES pH 5.5, 25°C; one independent binding site model. Particulars: both partners purified.

Data set [2] deals with the molecule itself. As to the kind of experiment: AUC; sedimentation velocity, 20°C, 50000 rpm, 20 mM MES pH 5.5; c(S) distribution compared with theoretical sedimentation coefficients (HYDROPRO).

B1: quadruple mutant protein sHIP, sHIPqp (natural protein)
chain: SMKQDQLIVEKMEQTYEAFSPKLANLIEALDAFKEHYEEYATLRNFYSSDEWFRLANQPWDDIPSGVLSEDLLFDMIGDHNQLAADIADLAPIMAKHM
notes: protein sHIP, S. pyogenes, UniProt Q99XU0, residues Lys3-Met98 with Leu84, Leu88, Tyr95 mutated to alanine and Cys65 to serine; Dimer by AUC and in the crystal; For NMR the protein was double-labelled (15N, 13C), grown in minimal medium; also called sHIPqp mutant; sHIP mutant; source: E. coli Rosetta BL21 (DE3), purified (IMAC, His-tag removed with TEV protease, reverse phase chromatography); not …
B1 registered a Kd in data set [1] of 2800 ± 300 nM. Besides, the “stoichiometry N” value in data set [2] was found to be 2.

In general, Kd refers to the concentration at which binding is half-saturated. A lower Kd goes with higher affinity. In general, stoichiometry N refers to a count of units in the complex or per binding partner.
